Results on 1 molecule are retold here after patent publication US20180371066A1 (C2N DIAGNOSTICS, published 2018).

Assay [1] concerns the target T1, recombinant human Tau-412 protein (human, UniProt P10636-7 1-412).
T1 construct: Analyte of the SPR study; also called human tau (1N4R, 412 amino acids)
The assay can be described thus: SPR Biacore T200, mAb captured on Protein A, Tau-412 analyte, 1-to-1 model, chip A11/1. How it is done: (§1) Kinetic data was obtained at a flow rate of 40 μL/min to minimize any potential mass transfer effects. Two repeats of the blank (no antigen) and the 2.5 nM concentration of the analyte were programmed into the kinetic run in order to check the stability of both the surface and analyte over the kinetic cycles. For the initial kinetic runs, 2-fold dilutions of Tau-412 from 40 nM to 0.156 nM were run. For kinetic analysis and on subsequent runs, an analyte range of 20 nM to 0.625 nM was selected. This range covered multiple analyte concentrations both above and below the reported KD.
(§2) The association phase was monitored for 500 seconds to allow some of the higher concentrations of analyte to reach steady state. In order to observe a sufficient signal decrease (>10%) during the dissociation phase of the kinetic cycle, dissociation was measured for 1200 seconds. As discussed in Section 5, the Fcs were allowed to stabilize for 600 seconds after each regeneration step. The signal from the reference channel Fc1 was subtracted from that of Fc2, Fc3 and Fc4.
(§3) The kinetic parameters for the interaction of Tau-412 with the 7 mAbs as measured using the Protein A capture system on the Biacore T200 are shown in Table F-2. To correct for differences in the capture level of the antibody between each binding cycle, a local Rₘₐₓ parameter was used in the 1-to-1 binding model. Kinetic analysis was performed in three independent runs using fresh preparations of Tau-412 and antibody. Run 1 and runs 2+3 used different vials of the antigen Tau-412; therefore the reported errors associated with the mean response probably represent variation in preparation of the analyte and differences in assay set-up and run. From run 1 to runs 2+3, the amount of antibody injected was adjusted to try to get closer to the target 300 RU capture levels.

Another assay concerns the target T2, human tau (human, UniProt P10636 2-60).
T2 construct: also called soluble human tau; human tau protein
The assay can be described thus: competition ELISA on plate-coated human tau against biotinylated HJ8.5; IC50 normalised to chimeric HJ8.5; column External. For orientation: An ELISA detects its analyte on a solid surface through an enzyme-linked reagent.

For assay [2], the target named is T1, recombinant human Tau-412 protein. The experiment in a line: SPR Biacore T200, mAb captured on Protein A, Tau-412 analyte, 1-to-1 model, chip A11/3. How it is done: as §1, §2, §3
In general terms: Surface plasmon resonance follows binding to a sensor surface in real time, without labels.

The target in another assay is T3, PEP_2875825.
T3 peptide: DQGGYTMHQAAEGDT
The experiment in a line: peptide array of 15-mers of human tau probed with the antibody; label LIN.AA (double alanine).

For another assay, the target named is T4, PEP_2875811.
T4 peptide: YGLGDRKDQAAYTMH
The assay is described as above.

For a further assay, the target named is T5, PEP_2875809.
T5 peptide: TYGLGDRKDAAGYTM
The assay is described as above.

In a further assay the target is T6, PEP_2875823.
T6 peptide: KDQGGYTMHAAQEGD
Described as above.

T1 sequence (P10636 other isoform, or with tags, fused parts or gaps limits assumed): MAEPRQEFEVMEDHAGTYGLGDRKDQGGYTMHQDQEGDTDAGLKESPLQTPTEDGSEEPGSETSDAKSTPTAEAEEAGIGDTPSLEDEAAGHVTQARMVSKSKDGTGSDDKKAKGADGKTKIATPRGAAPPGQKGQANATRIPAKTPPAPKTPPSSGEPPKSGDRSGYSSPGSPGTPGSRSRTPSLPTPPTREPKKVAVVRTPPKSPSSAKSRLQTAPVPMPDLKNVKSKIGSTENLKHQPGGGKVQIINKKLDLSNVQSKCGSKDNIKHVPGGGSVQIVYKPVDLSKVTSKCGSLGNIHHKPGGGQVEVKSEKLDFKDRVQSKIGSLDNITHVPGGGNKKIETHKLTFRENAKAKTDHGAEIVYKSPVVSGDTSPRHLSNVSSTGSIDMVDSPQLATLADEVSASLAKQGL
T2 sequence (P10636 2-60 limits assumed): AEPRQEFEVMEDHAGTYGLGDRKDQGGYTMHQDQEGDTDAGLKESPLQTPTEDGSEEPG

B1: VH1/VK2 humanized anti-tau antibody (C2N-8E12) (antibody, human IgG4 S228P, kappa, V domains shown)
VH: EVKVVESGGGLVQPGGSMKLSCVVSGFTFSNYWVNWVRQAPGKGLEWVAQIRLKSDNYATHYEESVKGRFTISRDDSKSSVYLQMNNLRAEDSGIYYCTNWEDYWGQGTTVTVSS
VL: DIVLTQSPDSLAVSLGERATISCRASQSVSTSRYSYIHWYQQKPGQPPKLLIKYASNLESGVPSRFSGSGSGTDFTLNIHPLEPEDFATYYCHHSWEIPLTFGQGTKLEIKR
notes: Humanized recombinant IgG4 with S241P hinge mutation, human kappa light chain; also called C2N-8EI2
Turning to B1, the Kd (commonly the constant that tells how readily two partners part at equilibrium) in assay [1] came to 2.18 nM; in assay [2] it was 1.95 nM. Further, the koff (as a rule, a measure of how fast the partners let go of each other) in assay [1] came to 0.000611 s⁻¹; in assay [2], 0.000632 s⁻¹. Besides, the association rate constant (kon) (usually the rate constant with which the complex forms) in assay [1] was determined as 280000 M⁻¹ s⁻¹; in assay [2], 325000 M⁻¹ s⁻¹. In the assay with human tau, the “IC50 (Relative to Chimera)” value was 0.78 relative to Chimera. Moreover, the “Binding Signal” value in the assay with PEP_2875825 worked out at 2580; with PEP_2875811 it was 1880; in the assay with PEP_2875809 it was 2760; in the assay with PEP_2875823 it was 2710.
